Data taken from PMC6557629.

Target: Recombinant murine serum amyloid A isoform 1.1 (murine)
Test: cross-linking; SAA-POPC complexes hydrolyzed by sPLA2-III (0.5 mg/ml protein) with glutaraldehyde 0.01-0.08%, 30 min at 24°C, 50 mM sodium phosphate, 150 mM NaCl, pH 7.5; quenched with 100 mM Tris; SDS PAGE

Recombinant murine serum amyloid A isoform 1.1 (natural protein)
stoichiometry N: 6
